According to US20220154296A1, “USE OF ANTI-PD-1 ANTIBODY IN PREPARATION OF MEDICAMENT FOR TREATING SOLID TUMORS” (Shanghai Junshi Biosciences Co., Ltd., priority 2019, published 2022):

[1] = ESCC patients, 3 mg/kg Q2W, n = 59

Protocol: The anti-PD-1 antibody dose groups for this study: 3 mg/kg dose group at first. After enrollment, subjects will receive treatment every 2 weeks (Q2W) for a 4-week cycle, until disease progression, onset of intolerable toxicity, withdrawal of consent by the subject, no further benefit at the discretion of the investigator, or death.
The planned dose was 3 mg/kg, Q2W.

With “toripalimab: humanized IgG4 anti-PD-1 mAb comprising light and heavy chain amino acid sequences set forth in SEQ ID NOs: 9 and 10 (WO2014206107)” the “Common TRAE: ALT elevation” value (59 ESCC patients) was 11.9%, the “Common TRAE: AST elevation” value (59 ESCC patients) was 13.6% and the “Common TRAE: anemia” value (59 ESCC patients) was 18.6%. For the same substance, the “Common TRAE: constipation” value (59 ESCC patients) was 10.2%, the “Common TRAE: cough” value (59 ESCC patients) was 16.9% and the “Common TRAE: fatigue” value (59 ESCC patients) was 11.9%. For the same substance, the “Common TRAE: fever” value (59 ESCC patients) was 16.9%, the “Common TRAE: hypothyroidism” value (59 ESCC patients) was 13.6% and the “Common TRAE: leukopenia” value (59 ESCC patients) was 15.3%. For the same substance, the “Common TRAE: loss of appetite” value (59 ESCC patients) was 18.6%, the “Common TRAE: low hemoglobin counts” value (59 ESCC patients) was 10.2% and the “Common TRAE: nausea” value (59 ESCC patients) was 11.9%. The “Common TRAE: total bilirubin increase” value (59 ESCC patients) was 10.2%, the “Common TRAE: weight loss” value (59 ESCC patients) was 18.6% and the “Grade 3 TRAE: anemia” value (59 ESCC patients) was 2 cases. The “Grade 3 TRAE: anorexia” value (59 ESCC patients) was 1 case, the “Grade 3 TRAE: dysphagia” value (59 ESCC patients) was 1 case and the “Grade 3 TRAE: esophageal stenosis” value (59 ESCC patients) was 1 case. For the same substance, the “Grade 3 TRAE: fatigue” value (59 ESCC patients) was 1 case, the “Grade 3 TRAE: hydrocardia” value (59 ESCC patients) was 1 case and the “Grade 3 TRAE: hypercalcemia” value (59 ESCC patients) was 1 case. The “Grade 3 TRAE: hypertension” value (59 ESCC patients) was 1 case, the “Grade 3 TRAE: hyponatremia” value (59 ESCC patients) was 2 cases and the “Grade 3 TRAE: leukopenia” value (59 ESCC patients) was 1 case. For the same substance, the “Grade 3 TRAE: neck infection” value (59 ESCC patients) was 1 case, the “Grade 3 TRAE: upper respiratory infection” value (59 ESCC patients) was 1 case and the “Grade 4 TRAE: hyperuricemia” value (59 ESCC patients) was 1 case. For the same substance, the “Grade 4 TRAE: paraplegia” value (59 ESCC patients) was 1 case, the “Patients permanently discontinued due to TRAE” value (59 ESCC patients) was 23.7% and the “Patients with Grade 3 and higher TRAEs” value (59 ESCC patients) was 32.2%. The “Patients with Grade 4 TRAEs” value (59 ESCC patients) was 3.4%, the “Patients with dose discontinuation due to TRAE” value (59 ESCC patients) was 10.2% and the “Patients with grade 3 TRAEs” value (59 ESCC patients) was 18.6%. The “Safety in ESCC patients (conclusion)” value (59 ESCC patients) was “controlled safety”, the “Treatment-related death: cachexia” value (59 ESCC patients) was 1 case and the “Treatment-related death: pneumonia” value (59 ESCC patients) was 2 cases. For the same substance, the “Treatment-related death: unknown etiology” value (59 ESCC patients) was 3 cases, the “Patients with treatment-related adverse events (TRAEs)” value (59 ESCC patients, as of Dec. 31, 2018) was 94.9% and the Treatment-related deaths (59 ESCC patients, likely unrelated to the treatment) was “six”. For the same substance, the “ALT elevation, Level 1” value [1] was 7 (11.9) n (%), the “ALT elevation, Level 2” value [1] was 0 n (%) and the “ALT elevation, Level 3” value [1] was 0 n (%). The “ALT elevation, Level 4” value [1] was 0 n (%), the “ALT elevation, Level 5” value [1] was 0 n (%) and the “ALT elevation, Total” value [1] was 7 (11.9) n (%). For the same substance, the “AST elevation, Level 1” value [1] was 8 (13.6) n (%), the “AST elevation, Level 2” value [1] was 0 n (%) and the “AST elevation, Level 3” value [1] was 0 n (%). The “AST elevation, Level 4” value [1] was 0 n (%), the “AST elevation, Level 5” value [1] was 0 n (%) and the “AST elevation, Total” value [1] was 8 (13.6) n (%). For the same substance, the “Anemia, Level 1” value [1] was 6 (10.2) n (%), the “Anemia, Level 2” value [1] was 2 (3.4) n (%) and the “Anemia, Level 3” value [1] was 3 (5.1) n (%). For the same substance, the “Anemia, Level 4” value [1] was 0 n (%), the “Anemia, Level 5” value [1] was 0 n (%) and the “Anemia, Total” value [1] was 11 (18.6) n (%). The “Constipation, Level 1” value [1] was 5 (8.5) n (%), the “Constipation, Level 2” value [1] was 1 (1.7) n (%) and the “Constipation, Level 3” value [1] was 0 n (%). The “Constipation, Level 4” value [1] was 0 n (%), the “Constipation, Level 5” value [1] was 0 n (%) and the “Constipation, Total” value [1] was 6 (10.2) n (%). For the same substance, the “Cough, Level 1” value [1] was 6 (10.2) n (%), the “Cough, Level 2” value [1] was 4 (6.8) n (%) and the “Cough, Level 3” value [1] was 0 n (%). For the same substance, the “Cough, Level 4” value [1] was 0 n (%), the “Cough, Level 5” value [1] was 0 n (%) and the “Cough, Total” value [1] was 10 (16.9) n (%). For the same substance, the “Fatigue, Level 1” value [1] was 6 (10.2) n (%), the “Fatigue, Level 2” value [1] was 1 (1.7) n (%) and the “Fatigue, Level 3” value [1] was 0 n (%). For the same substance, the “Fatigue, Level 4” value [1] was 0 n (%), the “Fatigue, Level 5” value [1] was 0 n (%) and the “Fatigue, Total” value [1] was 7 (11.9) n (%). The “Fever, Level 1” value [1] was 8 (13.3) n (%), the “Fever, Level 2” value [1] was 2 (3.4) n (%) and the “Fever, Level 3” value [1] was 0 n (%). The “Fever, Level 4” value [1] was 0 n (%), the “Fever, Level 5” value [1] was 0 n (%) and the “Fever, Total” value [1] was 10 (16.9) n (%). The “Hypothyroidism, Level 1” value [1] was 5 (8.5) n (%), the “Hypothyroidism, Level 2” value [1] was 3 (5.1) n (%) and the “Hypothyroidism, Level 3” value [1] was 0 n (%). The “Hypothyroidism, Level 4” value [1] was 0 n (%), the “Hypothyroidism, Level 5” value [1] was 0 n (%) and the “Hypothyroidism, Total” value [1] was 8 (13.6) n (%). For the same substance, the “Leukopenia, Level 1” value [1] was 6 (10.2) n (%), the “Leukopenia, Level 2” value [1] was 3 (5.1) n (%) and the “Leukopenia, Level 3” value [1] was 0 n (%). The “Leukopenia, Level 4” value [1] was 0 n (%), the “Leukopenia, Level 5” value [1] was 0 n (%) and the “Leukopenia, Total” value [1] was 9 (15.3) n (%). The “Loss of appetite, Level 1” value [1] was 6 (10.2) n (%), the “Loss of appetite, Level 2” value [1] was 4 (6.8) n (%) and the “Loss of appetite, Level 3” value [1] was 1 (1.7) n (%). The “Loss of appetite, Level 4” value [1] was 0 n (%), the “Loss of appetite, Level 5” value [1] was 0 n (%) and the “Loss of appetite, Total” value [1] was 11 (18.6) n (%). The “Low hemoglobin counts, Level 1” value [1] was 3 (5.1) n (%), the “Low hemoglobin counts, Level 2” value [1] was 3 (5.1) n (%) and the “Low hemoglobin counts, Level 3” value [1] was 0 n (%). For the same substance, the “Low hemoglobin counts, Level 4” value [1] was 0 n (%), the “Low hemoglobin counts, Level 5” value [1] was 0 n (%) and the “Low hemoglobin counts, Total” value [1] was 6 (10.2) n (%). For the same substance, the “Nausea, Level 1” value [1] was 5 (8.5) n (%), the “Nausea, Level 2” value [1] was 2 (3.4) n (%) and the “Nausea, Level 3” value [1] was 0 n (%). For the same substance, the “Nausea, Level 4” value [1] was 0 n (%), the “Nausea, Level 5” value [1] was 0 n (%) and the “Nausea, Total” value [1] was 7 (11.9) n (%). For the same substance, the “Total bilirubin increase, Level 1” value [1] was 6 (10.2) n (%), the “Total bilirubin increase, Level 2” value [1] was 0 n (%) and the “Total bilirubin increase, Level 3” value [1] was 0 n (%). For the same substance, the “Total bilirubin increase, Level 4” value [1] was 0 n (%), the “Total bilirubin increase, Level 5” value [1] was 0 n (%) and the “Total bilirubin increase, Total” value [1] was 6 (10.2) n (%). For the same substance, the “Treatment-related adverse events, Level 1” value [1] was 13 (22.0) n (%), the “Treatment-related adverse events, Level 2” value [1] was 24 (40.7) n (%) and the “Treatment-related adverse events, Level 3” value [1] was 11 (18.6) n (%). The “Treatment-related adverse events, Level 4” value [1] was 2 (3.4) n (%), the “Treatment-related adverse events, Level 5” value [1] was 6 (10.2) n (%) and the “Treatment-related adverse events, Total” value [1] was 56 (94.9) n (%). The “Weight loss, Level 1” value [1] was 8 (13.6) n (%), the “Weight loss, Level 2” value [1] was 3 (5.1) n (%) and the “Weight loss, Level 3” value [1] was 0 n (%). The “Weight loss, Level 4” value [1] was 0 n (%), the “Weight loss, Level 5” value [1] was 0 n (%) and the “Weight loss, Total” value [1] was 11 (18.6) n (%).
